{"source": "patent US20130045267A1", "about": "“METHODS OF USING AGENTS THAT MODULATE CLAUDIN EXPRESSION” (priority 2010, published 2013)", "molecules": {"B1": {"name": "CLDN1 siRNA: claudin-1 specific siRNA (Santa Cruz), a pool of 3 separate strands, SEQ ID NO: 10-15 (nucleic acid)", "chain 1": "UACAUAGGCAUAGUUCAUGNN", "chain 2": "CAUGAACUAUGCCUAUGUANN", "chain 3": "AACGUAUGCAGUUAAUUCCNN", "chain 4": "GGAAUUAACUGCAUACGUUNN", "chain 5": "UGAAGAUCUAUGUAUGUGGNN", "chain 6": "CCACAUACAUAGAUCUUCANN", "modifications": "chemistry not given here"}}, "key": {"connexin-26 (GJB2)": {"test_system": "connexin-26 (GJB2)", "assay": "qPCR of connexin-26 (GJB2) after claudin-1 knockdown in PHK", "format": "cell-based, human", "conditions": "claudin-1 siRNA transfected PHK, n=6", "method": "(§1) QPCR was performed using the iScript™ cDNA Synthesis kit and iQ™ SYBER Green Supermix assay system (Bio-Rad Laboratories). All PCR amplifications were carried out in triplicate on an iQ5 Multicolor real-time PCR detection system (Bio-Rad). Primers were designed and synthesized by Integrated DNA Technologies (Table 1). Relative gene expression was calculated by using the 2^−ΔΔCt method. Livak and Schmittgen, “Analysis of Relative Gene Expression Data Using Real-Time Quantitative PCR and the 2(−Delta Delta C(T)) Method,” Methods 25:402-8 (2001), which is hereby incoporated by reference in its entirety. The normalized Ct value of each sample was calculated using GAPDH as an endogenous control gene.\n(§2) PHK were plated on glass coverslips at 2-3×10^5 cells/well in a 6-well plate or at 2-3×10^4 cells/filter in Transwell insert (Costar; PET membrane, 0.4 μm pore size, 6.5 mm insert) in Keratinocyte-SFM without antibiotics. The next day after plating, cells were transfected with claudin-1 specific or control (scrambled) siRNAs (Santa Cruz) using Lipofectamine™ 2000 transfection Reagent (Invitrogen). TEER and permeability experiments were conducted 48 hours after PHK were switched to differentiation media."}, "[1]": {"test_system": "occludin, ZO-1, nectin-1, E-cadherin or filaggrin", "assay": "qPCR of other barrier proteins after claudin-1 siRNA in PHK", "format": "cell-based, human", "conditions": "siRNA 100 nM, n=5/group", "method": "as §1, §2"}, "nectin-1 (PVRL1)": {"test_system": "nectin-1 (PVRL1)", "assay": "qPCR of nectin-1 (PVRL1) after CLDN1 siRNA in PHK", "format": "cell-based, human", "method": "as §2, with “a E-well” for “a 6-well”, “Transwell inserts” for “Transwell insert”, “(Invitrogen).” for “(Invitrogen). TEER and permeability experiments were conducted 48 hours after PHK were switched to differentiation media.”\nReverse transcription was performed from total RNA using iScript™ cDNA Synthesis kit (Bio-Rad) according to the manufacturer's protocol. qPCR was performed using the iQ™ SYBER Green Supermix assay system from Bio-Rad Laboratories. All PCR amplifications were carried out in triplicate on an iQ5 Multicolor real-time PCR detection system (Bio-Rad). Primers were designed and synthesized by Integrated DNA Technologies. […]\nRelative gene expression was calculated by using the […], in which Ct indicates cycle threshold, the fractional cycle number where the fluorescent signal reaches detection threshold. Livak and Schmittgen, “Analysis of Relative Gene Expression Data Using Real-Time Quantitative PCR and the 2(−Delta Delta C(T)) Method,” Methods 25:402-8 (2001), which is hereby incorporated by reference in its entirety. The normalized Ct value of each sample was calculated using GAPDH as an endogenous control gene."}, "HSV-1 strain F": {"test_system": "HSV-1 strain F", "assay": "Infectious center assay", "format": "cell-based, Herpes Simplex Virus (HSV)-1", "conditions": "24 h post-infection, n=3", "method": "Twenty-four hours post-infection, PHK were treated with 0.05% Trypsin-EDTA (Invitrogen/Gibco) for 5 min at 37° C. followed by gently scraping to lift the cells, washed 3 times in DMEM containing 1% HI-FBS, and vortexed for 30 sec to disrupt cell clumps. Alive cells were counted using Trypan blue exclusion and scalar PHK dilutions (1000 to 1 cells in 1 ml of media) were plated onto pre-grown monolayers of Vero cells in six well plates. After 2 h, 1 ml of DMEM containing 5% HI-FBS and 0.4% human-γ-globulin (Sigma; final concentration 0.5 mg/ml) was added to each well. After 3 days incubation at 37° C., cells were fixed (75% MeOH/25% acetic acid) and stained with 0.1% crystal violet. Plaques were counted by 2 independent investigators and results expressed as percent of infected PHK."}, "claudin-1 transcripts": {"test_system": "claudin-1 transcripts", "assay": "qPCR of claudin-1 transcripts after siRNA transfection of PHK", "format": "cell-based, human", "conditions": "siRNA 100 nM", "method": "as §1, §2\nsiRNA approach was used to selectively downregulate claudin-1 in primary human keratinocytes (PHK). […] There was no effect on mRNA expression of occludin, ZO-1, nectin-1, E-cadherin or filaggrin (n=5/group). Relative gene expressions were calculated by using the 2^−ΔΔCt method, in which Ct indicates cycle threshold, the fractional cycle number where the fluorescent signal reaches detection threshold. The normalized Ct value of each sample was calculated using GAPDH as endogenous control gene. The specific sequence information for the claudin-1 siRNA (h) is detailed below. (This siRNA is a pool of 3 separate strands.)"}, "occludin": {"test_system": "occludin", "assay": "Western blot of occludin after CLDN1 siRNA in PHK", "format": "cell-based, human", "conditions": "48 h", "method": "PHK were lysed on ice in RIPA lysis buffer (20 mM Tris, 50 mM NaCl, 2 mM EDTA, 2 mM EGTA, 1% sodium deoxycholate, 1% TX-100, and 2% SDS, pH 7.4), with 1:100 Protease Inhibitor Cocktail (Sigma), 1:100 Phosphatase Inhibitor Cocktail ([…] for 30 min at 4° C. The samples were heated at 95° C. for 10 min and then centrifuged at 14,000 rpm for 15 min. Forty μg of protein, determined by BCA (Pierce) in NuPage LDS Sample Buffer (Invitrogen) was applied to 4-12% NuPage Bis-Tris gels (Invitrogen). Electrophoresis was performed under reducing conditions with MES SDS Buffer (Invitrogen). Membranes were incubated in blotting solution (5% non-fat dry milk in PBS+0.05% Tween 20) at RT for 1 h and then incubated with primary antibodies; claudin-1 (JAY.8; Zymed), occludin (OC/3F10; Zymed) and GAPDH (FL-355; Santa Cruz). An HRP-linked secondary antibody (GE Healthcare) was used with ECL (GE Healthcare) to visualize bands by autoradiography with Kodak BioMax MR film. The pixel intensity of each band was estimated with Image J.\nPHK were plated on glass coverslips at 2-3×10^5 cells/well in a 6-well plate or at 2-3×10^4 cells/filter in Transwell insert (Costar; PET membrane, 0.4 μm pore size, 6.5 mm insert) in Keratinocyte-SFM without antibiotics. […]"}, "[2]": {"test_system": "primary human keratinocytes (PHK)", "assay": "Click-iT EdU proliferation assay in PHK", "format": "cell-based", "conditions": "n=3"}}, "note": "Where “and” joins values, the source holds several entries; their conditions need not be identical. Equal entries are not always repeated."}
{"molecule": "B1", "values": [{"measurement": "connexin-26 (GJB2) expression over control", "setting": "connexin-26 (GJB2)", "result": "1.7±0.8", "unit": "fold"}, {"measurement": "mRNA expression of occludin, ZO-1, nectin-1, E-cadherin or filaggrin", "setting": "[1]; listed as Cldn1 siRNA", "result": "no effect"}, {"measurement": "mRNA expression of occludin, ZO-1, nectin-1, E-cadherin or filaggrin", "setting": "[1]; listed as claudin-1 siRNA", "result": "no changes"}, {"measurement": "nectin-1 mRNA expression, effect of CLDN1 silencing", "setting": "nectin-1 (PVRL1); n=5", "result": "not affected"}, {"measurement": "nectin-1 (PVRL1) mRNA relative expression", "setting": "nectin-1 (PVRL1); siRNA 100 nM, n=5/group", "result": "0.99±0.16"}, {"measurement": "PHK infected with HSV-1", "setting": "HSV-1 strain F", "result": "38±6% and 38±6.43%"}, {"measurement": "reduction in claudin-1 transcripts compared to control transfected cells", "setting": "claudin-1 transcripts", "result": 50, "unit": "%"}, {"measurement": "claudin-1 transcripts (MEAN±SEM)", "setting": "claudin-1 transcripts; n=5/group", "result": "5.42±0.8", "unit": "RVU"}, {"measurement": "claudin-1 transcripts relative to control transfected cells", "setting": "claudin-1 transcripts; n=5/group", "result": 0.5, "unit": "fold"}, {"measurement": "claudin-1 transcripts relative to control transfected cells", "setting": "claudin-1 transcripts; n=5/group, listed as Cldn1 siRNA", "result": "0.5%±0.06 fold"}, {"measurement": "occludin protein by Western blot", "setting": "occludin", "result": "No change"}, {"measurement": "cell proliferation by Click-iT EdU assay", "setting": "[2]; CLDN1 siRNA, PHK", "result": "enhanced cell proliferation"}, {"measurement": "proliferating cells", "setting": "[2]; claudin-1 depleted PHK", "result": "21.6±1.4", "unit": "EdU positive cells/hpf"}]}
